Residue numbers refer to the chain shown, from its start.
T1: O-glycosylated LYPD3-STP-ECD (expressed in and purified from NM-F9 cells) (human, UniProt O95274 234-303, O-glycosylated on Ser/Thr by NM-F9 cells: predominantly TF (Galβ1-3GalNAcα1-), lower amounts of Tn)
T1 construct: also called NM-F9-derived LYPD3-STP; STP-rich C-terminal part of the ECD; not shown: fusion partner for purification and detection, e.g. Twin-Strep-tag, MBL or polyhistidine tag; which one and at which end
T1 sequence: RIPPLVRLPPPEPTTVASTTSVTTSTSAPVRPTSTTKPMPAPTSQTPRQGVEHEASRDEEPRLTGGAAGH

B1: 21E9-222 (antibody, V domains shown)
VH: EVQLVESGGGLVQPGGSLRLSCAASGFDFSNYYYMCWVRQAPGKGLEWVSCIAAGSGGYTYYASWAKGRFTISRDNSKNTLYLQMNSLRAEDTAVYYCASSGDYKGFNLWGQGTLVTVS
VL: DIVMTQSPSSLSASVGDRVTITCQASQSISSYLAWYQQKPGKPPKLLIYGASNLASGVPSRFSGSGSGTDFTLTISSLQPEDVATYYCQGYYYSFSDIFAFGGGTKVEI
notes: Humanized 21E9; also called humanized aLYPD3 antibody 21E9-222
B2: 21E9-219 (antibody, V domains shown)
VH: B1 VH with E1L, Q13K, V38I, S77A, T80S, Y96W
VL: B1 VL
notes: Humanized 21E9; also called humanized aLYPD3 antibody 21E9-219
B3: 21E9-220 (antibody, V domains shown)
VH: B1 VH with E1Q, V5Q, S50L, V95I
VL: B1 VL
notes: Humanized 21E9; also called humanized aLYPD3 antibody 21E9-220
B4: 21E9-221 (antibody, V domains shown)
VH: B1 VH with L115M
VL: B1 VL
notes: Humanized 21E9; also called humanized aLYPD3 antibody 21E9-221
B5: 21E9-224 (antibody, V domains shown)
VH: B1 VH
VL: B1 VL with D1E, P43A, V83F
notes: Humanized 21E9; also called humanized aLYPD3 antibody 21E9-224
B6: 21E9-225 (antibody, V domains shown)
VH: B1 VH
VL: B1 VL with D1A, V3R, M4I, T5A, V15T, P43A, S77C, P80S, V83F, G103Q
notes: Humanized 21E9; also called humanized aLYPD3 antibody 21E9-225
B7: 21E9-226 (antibody, V domains shown)
VH: B1 VH
VL: B1 VL with D1E, V107L
notes: Humanized 21E9; also called humanized aLYPD3 antibody 21E9-226
B8: 21E9-227 (antibody, V domains shown)
VH: B1 VH with E1Q, Q13K, V38I, S77A, T80S
VL: B1 VL with D1A, V3R, M4I, T5A, V15T, P43A, S77C, P80S, V83F, G103Q
notes: Humanized 21E9; also called humanized aLYPD3 antibody 21E9-227
B9: 21E9-228 (antibody, V domains shown)
VH: B1 VH with E1Q, V5Q, S50L, V95I
VL: B1 VL with D1A, V3R, M4I, T5A, V15T, P43A, S77C, P80S, V83F, G103Q
notes: Humanized 21E9; also called humanized aLYPD3 antibody 21E9-228

target: T1, O-glycosylated LYPD3-STP-ECD (expressed …); assay: ELISA and flow cytometry (FIGS. 14, 15 and 16)
Method: Briefly, differently glycosylated and non-glycosylated protein antigens or glycans conjugated to carbohydrate-polyacrylamide conjugates (carbohydrate PAA-conjugates, GlycoNZ) were coated to 96-well plates overnight, unspecific binding was blocked and test antibody samples were added. In some assays an anti-huLYPD3 huIgG1 control monoclonal Ab was used, that was purified from CHO cell supernatant after expression of the antibody sequence derived from patent application WO 2011/070088 A1 (SEQ ID NOs: 51 and 52 of WO 2011/070088) (“aLYPD3 mAb”). This control anti-huLYPD3 antibody binds to the extracellular domain of human LYPD3 in a glycosylation-independent manner. To control protein antigen coating to the ELISA plates anti-huLYPD3 rabbit polyclonal antibody (R&D Systems, cat. no. AF5428) (“aLYPD3 pAb”) or a-MBL antibody (Novusbio) (“aMBL”) for constructs expressed as MBL fusion protein were used. Antibodies recognizing specific glycan structures were used to detect glycosylation of the coated proteins. Anti-TFa (“aTF”) antibody clone HH8 was kindly provided by Prof. Clausen, University of Copenhagen. Antibodies specifically recognizing Tn (“aTn”) were either purchased from SBH Sciences or also provided by Prof. Clausen, University of Copenhagen (clone 5F4). Afterwards, peroxidase conjugated anti-IgG secondary antibody was added, followed by 3,3′,5,5′-tetramethylbenzidine (TMB) substrate reaction. Antibody binding rates were determined by measurement absorbance at 450 nm and 620 or 630 nm as reference wavelength using a multimode microplate reader (PerkinElmer EnSpire 2300 or Tecan Spark).
Binding of aLYPD3 clones to cell lines with different glycosylation status of LYPD3 was tested. LYPD3-transfected NM-F9 (LYPD3-F9), expressing LYPD3 carrying non-sialylated O-glycans, not transfected NM-F9 (corresponding WT cells), expressing endogenous level of LYPD3, and LYPD3-transfected HEK-O-glyc KO (LYPD3-HEK-O-glyc. KO) expressing LYPD3 without O-glycans, were stained with aLYPD3 clones and detected via fluorophore-coupled anti-human-IgG secondary reagent. Expression of LYPD3 and TFa was confirmed using control aLYPD3 pAb and mAb and aTF mAb. To determine background staining, an irrelevant hIgG1 control was included. DAPI was used to discriminate live from dead cells. Cells were analyzed using a Canto II (BD) flow cytometer.

Binding result, binds:
B1
B2
B3
B4
B5
B6
B7
B8
B9
